Laboratory results reported in patent publication US20120237518A1 (Kyowa Kirin, published 2012).

T1: recombinant human Trop-2/Fc/His fusion protein (manufactured by R&D) (human, UniProt P09758 27-274, limits assumed)
T1 construct: Bought reagent; also called Trop-2/Fc/His chimeric protein; recombinant Trop-2
T1 sequence: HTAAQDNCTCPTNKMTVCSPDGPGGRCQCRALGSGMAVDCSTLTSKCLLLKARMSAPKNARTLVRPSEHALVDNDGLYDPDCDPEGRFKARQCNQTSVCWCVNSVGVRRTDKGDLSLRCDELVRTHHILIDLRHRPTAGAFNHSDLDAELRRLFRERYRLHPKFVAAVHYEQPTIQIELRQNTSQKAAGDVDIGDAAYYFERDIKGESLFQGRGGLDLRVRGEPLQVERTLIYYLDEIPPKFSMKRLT


Assays:
[1] = biological target: T1, recombinant human Trop-2/Fc/His fusion …; assay: SPR (Biacore T100), Trop-2/Fc/His captured by Tetra-His antibody, antibody as analyte, Bivalent Analyte model, mean of duplicates
Method: (§1) All the operations described below were carried out using Biacore T100 (manufactured by GE Healthcare Bio-sciences). Tetra-His antibody (manufactured by Qiagen) was immobilized so as to be 12,000 RU (resonance unit) on the CM5 sensor chip (manufactured by GE Healthcare Bio-sciences) using Amine Coupling Kit (manufactured by GE Healthcare Bio-sciences). After recombinant Trop-2/Fc/His fusion proteins (manufactured by R&D) were allowed to be captured on the sensor chip, anti-Trop-2 antibodies which were diluted in five-fold steps, starting from a concentration of 5,000 ng/ml were flowed at 30 μL/min, followed by obtaining sensorgrams at each concentration.
(§2) Using the software for analysis accompanied with the equipment, the results were analyzed based on Bivalent Analyte model to obtain the binding rate constant and the dissociation rate constant for binding of each antibody to a recombinant human Trop-2/Fc/His fusion protein.
(§3) In the same manner described in Example 3(2), the affinity of KM4591 and six kinds of KM4097 humanized antibodies (HV0LV0, HV3aLV0, HV4LV0, HV5LV0, HV10LV2 and HV10LV4) obtained in Example 8 to human Trop-2/Fc/His fusion proteins (manufactured by R&D) were evaluated.

[2] = biological target: T1, recombinant human Trop-2/Fc/His fusion …; assay: SPR (Biacore T100) on captured Trop-2/Fc/His; summary sentence of Table 6
Method: as §1, §2, §3

[3] = biological target: T2, Trop-2/FLAG/Fc, fusion protein of Trop-2 extracellular region, FLAG tag and Fc (human); assay: Western blot, KM4590 as primary antibody, Trop-2/FLAG/Fc in lane 1, non-reducing and reducing SDS-PAGE [a]
T2 construct: Expressed in HEK293F; The encoding DNA carries a secretion signal
Method: Each protein of Trop-2/FLAG/Fc, Mutant A, Mutant B, or Mutant C prepared in this Example 2 was electrophoresed under reducing condition (treatment of samples in the presence of 10 mmol/l DTT at 95° C. for 5 minutes) or non-reducing condition (treatment of samples in the absence of DTT at room temperature for 10 minutes) by an SDS-PAGE method. The proteins in the gel were transferred to polyvinylidene difluoride (PVDF) membrane at 200 mA for 1 hour using a semi-dry method.
After the blocking of the PVDF membrane was carried out using PBS containing 5% BSA at room temperature for 1 hour, the PVDF membrane was soaked in the primary antibody solution which was prepared with TBST [an aqueous solution which was prepared by diluting Tris buffered saline (10× concentration) (pH 7.4) manufactured by Nakarai Tesque Inc.) ten-fold and further adding 0.1% concentration of 0.05% polyoxyethylene (20) sorbitan monolaurate (manufactured by Wako Pure Chemical Industries, Ltd., equivalent to ICI Inc.'s trademark Tween 20)] comprising 0.1% BSA to react for 1 hour at room temperature or overnight at 4° C.
Using the imaging system LAS4000 mini (manufactured by Fujifilm), the luminescence images were obtained. […]

[4] = biological target: T1, recombinant human Trop-2/Fc/His fusion …; assay: SPR (Biacore T100), Trop-2/Fc/His captured by Tetra-His antibody on CM5 chip, antibody as analyte, Bivalent Analyte model, mean of duplicates
Method: as §1, §2

[5] = biological target: T1, recombinant human Trop-2/Fc/His fusion …; assay: SPR (Biacore T100), Trop-2/Fc/His captured by Tetra-His antibody, antibody as analyte, Bivalent Analyte model, mean of duplicates; remark: listed apart in the source
Method: as §1, §2
(1) Binding Activity of Anti-Trop-2 Human Chimeric Antibody to Recombinant Human Trop-2 using Biacore In the same manner described in Example 3, the affinity of KM4591 and cAR47A6.4.2-P to human Trop-2/Fc/His fusion proteins (manufactured by R&D) were measured. ka, kd, and KD (kd/ka) of each antibody are shown in Table 5 (the mean values of duplicate experiments).

| Binder | Kd [1] [nM] | koff [1] [s⁻¹] | kon [1] [M⁻¹ s⁻¹] | Kd [2] [nM] | also measured |
| --- | --- | --- | --- | --- | --- |
| KM4097 humanized antibody HV0LV0 (antibody, V domains shown, Expressed from pKANTEX93 (human constant regions) in FUT8 knockout CHO cells; no fucose attached) VH: QVQLVQSGAEVKKPGASVKVSCKASGYTFTIYWLGWVRQAPGQGLEWMGNIFPGSAYINYNEKFKGRVTITADTSTSTAYMELSSLRSEDTAVYYCAREGSNSGYWGQGTLVTVSS VL: DIVMTQSPDSLAVSLGERATINCKSSQSLLNSGNQQNYLAWYQQKPGQPPKLLIYGASTRESGVPDRFSGSGSGTDFTLTISSLQAEDVAVYYCQSDHIYPYTFGQGTKLEIK | 0.53 | 0.00016 | 330000 | ≤ 1 |  |
| KM4097 humanized antibody HV10LV2 (antibody, V domains shown, Expressed from pKANTEX93 (human constant regions) in FUT8 knockout CHO cells; no fucose attached) VH: QVQLVQSGPEVVKPGASVKISCKASGYTFTIYWLGWVKQAPGQGLEWIGNIFPGSAYINYNEKFKGKATLTADTSTSTAYMELSSLRSEDTAVYFCAREGSNSGYWGQGTLLTVSS VL: DIVMTQSPDSLAVSLGERVTINCKSSQSLLNSGNQQNYLAWYQQKPGQPPKLLIYGASTRESGVPDRFSGSGSGTDFTLTISSVQAEDVAVYYCQSDHIYPYTFGQGTKLEIK | 0.4 | 0.000148 | 375000 | ≤ 0.5 |  |
| KM4097 humanized antibody HV5LV0 (antibody, V domains shown, Expressed from pKANTEX93 (human constant regions) in FUT8 knockout CHO cells; no fucose attached) VH: QVQLVQSGAEVKKPGASVKVSCKASGYTFTIYWLGWVKQAPGQGLEWIGNIFPGSAYINYNEKFKGKATITADTSTSTAYMELSSLRSEDTAVYFCAREGSNSGYWGQGTLVTVSS VL: DIVMTQSPDSLAVSLGERATINCKSSQSLLNSGNQQNYLAWYQQKPGQPPKLLIYGASTRESGVPDRFSGSGSGTDFTLTISSLQAEDVAVYYCQSDHIYPYTFGQGTKLEIK | 0.49 | 0.00019 | 383000 | ≤ 0.5 |  |
| KM4097 humanized antibody HV4LV0 (antibody, V domains shown, Expressed from pKANTEX93 (human constant regions) in FUT8 knockout CHO cells; no fucose attached) VH: QVQLVQSGPEVKKPGASVKVSCKASGYTFTIYWLGWVKQAPGQGLEWIGNIFPGSAYINYNEKFKGRVTITADTSTSTAYMELSSLRSEDTAVYFCAREGSNSGYWGQGTLVTVSS VL: DIVMTQSPDSLAVSLGERATINCKSSQSLLNSGNQQNYLAWYQQKPGQPPKLLIYGASTRESGVPDRFSGSGSGTDFTLTISSLQAEDVAVYYCQSDHIYPYTFGQGTKLEIK | 0.42 | 0.000126 | 335000 | ≤ 0.5 |  |
| KM4097 humanized antibody HV3aLV0 (antibody, V domains shown, Expressed from pKANTEX93 (human constant regions) in FUT8 knockout CHO cells; no fucose attached) VH: QVQLVQSGPEVKKPGASVKVSCKASGYTFTIYWLGWVRQAPGQGLEWMGNIFPGSAYINYNEKFKGKVTITADTSTSTAYMELSSLRSEDTAVYFCAREGSNSGYWGQGTLVTVSS VL: DIVMTQSPDSLAVSLGERATINCKSSQSLLNSGNQQNYLAWYQQKPGQPPKLLIYGASTRESGVPDRFSGSGSGTDFTLTISSLQAEDVAVYYCQSDHIYPYTFGQGTKLEIK | 0.3 | 0.00016 | 506000 | ≤ 0.5 |  |
| anti-Trop-2 human chimeric antibody KM4590 (antibody, human IgG1, V domains shown, KM4097 variable regions joined to human IgG1 H chain constant region and human kappa L chain constant region (pKANTEX93); made in CHO/DG44 cells, fucose content 100%) VH: QVQLQQSGPELVRPGTSVRISCKASGYTFTIYWLGWVKQRPGHGLEWIGNIFPGSAYINYNEKFKGKATLTADTSSSTAYMQLSSLTSEDSAVYFCAREGSNSGYWGQGTTLTVSS VL: DIVMTQSPSSLSVSAGEKVTMTCKSSQSLLNSGNQQNYLAWYQQKPGQPPKLLIYGASTRESGVPDRFTGSGSGTDFTLTINSVQAEDLAVYYCQSDHIYPYTFGGGTKLEIK |  |  |  |  | binding result [3]: binds |
| anti-Trop-2 mouse monoclonal antibody KM4097 (antibody, V domains shown) VH: QVQLQQSGPELVRPGTSVRISCKASGYTFTIYWLGWVKQRPGHGLEWIGNIFPGSAYINYNEKFKGKATLTADTSSSTAYMQLSSLTSEDSAVYFCAREGSNSGYWGQGTTLTVSS VL: DIVMTQSPSSLSVSAGEKVTMTCKSSQSLLNSGNQQNYLAWYQQKPGQPPKLLIYGASTRESGVPDRFTGSGSGTDFTLTINSVQAEDLAVYYCQSDHIYPYTFGGGTKLEIK |  |  |  |  | Kd [4]: 0.261 nM; koff [4]: 0.000101 s⁻¹; kon [4]: 389000 M⁻¹ s⁻¹ |
| KM4097 humanized antibody HV10LV4 (antibody, V domains shown, Expressed from pKANTEX93 (human constant regions) in FUT8 knockout CHO cells; no fucose attached) VH: QVQLVQSGPEVVKPGASVKISCKASGYTFTIYWLGWVKQAPGQGLEWIGNIFPGSAYINYNEKFKGKATLTADTSTSTAYMELSSLRSEDTAVYFCAREGSNSGYWGQGTLLTVSS VL: DIVMTQSPDSLAVSAGERVTMNCKSSQSLLNSGNQQNYLAWYQQKPGQPPKLLIYGASTRESGVPDRFSGSGSGTDFTLTISSVQAEDVAVYYCQSDHIYPYTFGQGTKLEIK | 0.37 | 0.000116 | 342000 | ≤ 0.5 |  |
| anti-Trop-2 human chimeric antibody KM4591 (antibody, human IgG1, V domains shown, Same polypeptides as KM4590 (human IgG1, kappa), made in FUT8 knockout CHO/DG44 cells, fucose content 0%) VH: QVQLQQSGPELVRPGTSVRISCKASGYTFTIYWLGWVKQRPGHGLEWIGNIFPGSAYINYNEKFKGKATLTADTSSSTAYMQLSSLTSEDSAVYFCAREGSNSGYWGQGTTLTVSS VL: DIVMTQSPSSLSVSAGEKVTMTCKSSQSLLNSGNQQNYLAWYQQKPGQPPKLLIYGASTRESGVPDRFTGSGSGTDFTLTINSVQAEDLAVYYCQSDHIYPYTFGGGTKLEIK | 0.36 | 0.000113 | 323000 |  | Kd [5]: 0.143 nM; koff [5]: 5.8e-05 s⁻¹; kon [5]: 416000 M⁻¹ s⁻¹ |
| cAR47A6.4.2-P, defucosylated human IgG1 chimeric antibody of AR47A6.4.2 (antibody, V domains shown, No core fucose on the Fc N-glycan (made in FUT8 knockout CHO/DG44 cells); the letters do not carry this.) VH: QIQLVQSGPELKKPGETVKISCKASGYTFTNYGMNWVKQAPGKGLKWMGWINTKTGEPTYAEEFKGRFAFSLETSASTAYLQINNLKKEDTATYFCGRGGYGSSYWYFDVWGAGTTVTVSS VL: DIVMTQSHKFMSTSVGDRVSITCKASQDVSIAVAWYQQKPGQSPKVLIYSASYRYTGVPDRFTGSGSGTDFTFTISRVQAEDLAVYYCQQHYITPLTFGAGTKLELK |  |  |  |  | Kd [5]: 1.01 nM; koff [5]: 0.000218 s⁻¹; kon [5]: 221000 M⁻¹ s⁻¹ |
